Laboratory results taken from patent US20230303698A1 (HARBOUR BIOMED SHANGHAI, published 2023).

Target: T1, human CLDN18.2 (human)
T1 construct: On NUGC-4 cells highly expressing human CLDN18.2 (JCRB, JCRB0834); also called Claudin 18.2; NUGC-4 cells
Experiment: flow cytometry, NUGC-4 cells highly expressing human CLDN18.2
Protocol: In this example, the binding ability of the binding proteins to cells highly expressing specific tumor antigens was determined by flow cytometry FACS. Briefly, a cell suspension was collected, and the cell density was adjusted to 2×10⁶ cells/mL. […] Then, binding proteins diluted in a 3-fold gradient at a total of 8 concentrations that were 2 times the final concentrations were added at 50 μL/well, and the mixture was mixed well. hIgG1 iso (CrownBio, #C0001) was used as an isotype control. The cells were incubated at 4° C. for 2 h away from light. Then, the cells in each well were then rinsed twice with 100 μL of pre-cooled PBS buffer and centrifuged at 500 g at 4° C. for 5 min, and then the supernatant was discarded. […] Then, the cells in each well were then rinsed twice with 100 μL of pre-cooled PBS buffer and centrifuged at 500 g at 4° C. for 5 min, and then the supernatant was discarded. Finally, a pre-cooled FACS buffer (PBS buffer containing 0.5% BSA) was added at 200 μL/well to resuspend the cells. Fluorescence signal values were read using an ACEA NovoCyte flow cytometer or a BD FACS CANTOII flow cytometer, and the data were processed and analyzed using FlowJo v10 (FlowJo, LLC) software.
In this example, the binding ability of the antibodies targeting CLDN18.2 to NUGC-4 cells highly expressing human CLDN18.2 (JCRB, JCRB0834) was determined.

- binding result: binds
B1: PR002726, anti-CLDN18.2 monoclonal antibody 13E6F4 hIgG1 (antibody, V domains shown)
VH: EVQLLESGGGLVQPGGSLRLSCAASGFTFSSFVMSWVRQAPGKGLEWVSTISGSGRSTYYADSVKGRFTISRDNSKNTLHLQMNSLRAEDTAVYYCAKDAAAAGTKFDYWGQGTLVTVSS
VL: EIVLTQSPATLSLSPGERATLSCRASQSVSSYLAWYQQKPGQAPRLLIYDASNRATGIPARFSGSGSGTDFTLTISSLEPEDFAVYYCQQRSNWPLTFGGGTKVEIKR
notes: Parent monoclonal antibody of the CLDN18.2 end; hIgG1
